Source: patent US20230340055A1 (published 2023)

Tests used:
[1] = biological target: T1, IL-2-Rα/β/γ on the murine CTLL-2 T lymphocyte cell line (murine, UniProt P01590 22-268; P16297 27-539; P34902 23-369); experiment: cell-based or functional assay
T1 sequence (looked up) 1: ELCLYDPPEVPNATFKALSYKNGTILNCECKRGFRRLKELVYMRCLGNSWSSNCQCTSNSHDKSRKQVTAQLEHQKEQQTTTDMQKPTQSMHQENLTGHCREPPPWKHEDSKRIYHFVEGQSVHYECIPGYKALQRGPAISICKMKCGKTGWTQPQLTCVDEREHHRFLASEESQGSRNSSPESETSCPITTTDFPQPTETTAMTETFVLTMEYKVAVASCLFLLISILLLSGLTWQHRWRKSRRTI
T1 sequence (looked up) 2: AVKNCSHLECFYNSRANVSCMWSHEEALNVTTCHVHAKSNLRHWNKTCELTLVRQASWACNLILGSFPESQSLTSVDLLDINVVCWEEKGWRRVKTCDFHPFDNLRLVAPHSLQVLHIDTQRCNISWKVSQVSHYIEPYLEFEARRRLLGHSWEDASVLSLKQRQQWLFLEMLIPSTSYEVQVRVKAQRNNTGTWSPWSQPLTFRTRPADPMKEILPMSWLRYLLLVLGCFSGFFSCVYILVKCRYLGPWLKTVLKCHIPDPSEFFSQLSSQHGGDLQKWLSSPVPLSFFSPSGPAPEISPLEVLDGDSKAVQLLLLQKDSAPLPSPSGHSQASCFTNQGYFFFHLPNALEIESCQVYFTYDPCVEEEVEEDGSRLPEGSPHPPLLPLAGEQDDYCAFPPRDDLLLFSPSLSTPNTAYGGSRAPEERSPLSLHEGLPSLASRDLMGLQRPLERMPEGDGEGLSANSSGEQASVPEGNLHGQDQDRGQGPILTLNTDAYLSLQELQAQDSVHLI
T1 sequence (looked up) 3: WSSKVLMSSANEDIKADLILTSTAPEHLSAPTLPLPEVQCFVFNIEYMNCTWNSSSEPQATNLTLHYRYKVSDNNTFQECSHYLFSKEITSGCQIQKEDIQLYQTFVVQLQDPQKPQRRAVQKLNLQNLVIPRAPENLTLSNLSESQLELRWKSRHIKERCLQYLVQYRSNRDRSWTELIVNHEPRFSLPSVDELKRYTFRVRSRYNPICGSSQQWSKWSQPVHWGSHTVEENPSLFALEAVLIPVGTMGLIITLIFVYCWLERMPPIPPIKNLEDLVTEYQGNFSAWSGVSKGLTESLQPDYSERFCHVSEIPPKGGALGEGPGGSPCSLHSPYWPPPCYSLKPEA

[2] = biological target: T2, Human IL-2 Receptor alpha, Fc-Tag (Symansis, New Zealand) (human, UniProt P01589 22-240); experiment: SPR; KD to IL-2Rα divided by KD to IL-2Rβ of the same compound
T2 construct: extracellular domain; Bought reagent; also called IL-2Rα; IL-2Rα-Fc; not shown: Fc-Tag (captured by anti-human IgG (Fc) antibody)
T2 sequence (looked up): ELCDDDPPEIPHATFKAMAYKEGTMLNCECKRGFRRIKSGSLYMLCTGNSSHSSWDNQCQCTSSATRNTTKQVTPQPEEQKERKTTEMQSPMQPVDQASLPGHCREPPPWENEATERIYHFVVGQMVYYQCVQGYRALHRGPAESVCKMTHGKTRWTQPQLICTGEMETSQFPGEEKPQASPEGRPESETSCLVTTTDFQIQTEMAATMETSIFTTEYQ
Method: For the determination of binding kinetics to IL-2Rα the following chip preparation was used: Human IL-2 Receptor alpha, Fc-Tag (Symansis, New Zealand) was diluted in HBS-EP running buffer (GE Healthcare, 10 mM HEPES, 150 mM NaCl, 3 mM EDTA, 0.05% Surfactant P20, pH 7.4) to approx. 0.25 µg/mL and immobilized at a flow rate of 50 µL/min for 60 s to achieve 90 - 110 response units (RU).
(§1) For the determination of binding kinetics to IL-2Rβ the following chip preparation was used: Human IL-2 Receptor beta, Fc-Tag (Symansis, New Zealand) was diluted in HBS-EP running buffer (GE Healthcare, 10 mM HEPES, 150 mM NaCl, 3 mM EDTA, 0.05% Surfactant P20, pH 7.4) to around 0.25 µg/mL and immobilized at a flow rate of 50 µL/min for 60 s to achieve 300 - 330 response units (RU).
(§2) (50 µL/min flow rate, 60 s contact time, 300 s dissociation time). Double referenced data (subtracted data from the reference flow cell and the buffer only samples) was analysed via a kinetic fit (1:1 binding model) to determine KD, kₐ and kd. Regeneration after each cycle was performed with 3 M MgCl₂.

[3] = biological target: T3, Human IL-2 Receptor beta, Fc-Tag (Symansis, New Zealand) (human, UniProt P14784 27-240); experiment: SPR (Biacore T200), IL-2Rβ-Fc captured on anti-human IgG (Fc) CM5 chip, IL-2 as analyte, multi-cycle kinetics, 1:1 kinetic fit, 25 C
T3 construct: extracellular domain; Bought reagent; also called IL-2Rβ; IL-2Rβ-Fc; not shown: Fc-Tag (captured by anti-human IgG (Fc) antibody)
T3 sequence (looked up): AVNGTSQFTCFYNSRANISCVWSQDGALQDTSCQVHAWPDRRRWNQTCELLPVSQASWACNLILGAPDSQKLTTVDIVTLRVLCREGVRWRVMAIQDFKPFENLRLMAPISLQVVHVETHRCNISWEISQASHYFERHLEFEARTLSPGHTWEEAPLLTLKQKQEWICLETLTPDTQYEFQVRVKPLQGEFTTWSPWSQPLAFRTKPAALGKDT
Method: as §1, §2

B1: protein 6 (ligand)
chain: APTSSSTKKTQLQLEHLLLDLQMILNGINNYKNPKLTFGNSTKFYMPKKATELKHLQCLEEELKPLEEVLNLAQSKNFHLRPRDLISNINVIVLELKGSETTFMCEYADETATIVEFLNRWITFSQSIISTLT
modifications: glycosylated (same sequence with the N-glycosylation motif FGNST as protein 1f); glycan sites not analysed separately for protein 6
With B1 the “EC50 CTLL-2, STAT5 phosphorylation” value [1] was 3.39 µg/mL, the “Ratio (E50 CTLL-2 cells/EC50 HH cell)” value [1] was 35.1 and the “KD-Ratio (α/β)” value [2] was > 2.7. For the same binder, the Kd [3] was 740 nM.
